Measured values published in US20260242478A1 (published 2026).
Where two headings read alike, the source gives them in different places.

Legend:
Peptide-87 [1] = biological target: T1, Peptide-87; assay: BLI (Octet), biotinylated peptide on sensor, Fab in solution
T1 peptide: YCAGHAWQYINKCL

Peptide-120 [2] = biological target: T2, Peptide-120; assay: as above
T2 peptide: YCEGHLPEYIEKCL

Peptide-121 [3] = biological target: T3, Peptide-121; assay: as above
T3 peptide: YCEGHAPEYIAKCL

Peptide-126 [4] = biological target: T4, Peptide-126; assay: as above
T4 peptide: YCEGHLPEYREKCL

Peptide-127 = biological target: T5, Peptide-127; assay: as above
T5 peptide: YCEGHLPEYLAKCL

Peptide-132 = biological target: T6, Peptide-132; assay: as above
T6 peptide: YCEGHLPEYRNKCL

Peptide-134 = biological target: T7, Peptide-134; assay: as above
T7 peptide: YCEGHLPEYIQKCL

Peptide-135 [5] = biological target: T8, Peptide-135; assay: as above
T8 peptide: YCEGHLPEYIWKCL

Peptide-84 = biological target: T9, Peptide-84; assay: binding ELISA, biotinylated peptide on neutravidin plate, Fab titrated
T9 peptide: YCAGHSPINIGKCL

Peptide-87 [6] = biological target: T1, Peptide-87; assay: as above
Peptide-92 [7] = biological target: T10, Peptide-92; assay: as above
T10 peptide: SCAAGASYAWPYCL

Peptide-41 = biological target: T11, Peptide-41; assay: as above
T11 peptide: MDWCPRDLWVHCFA

Peptide-79 = biological target: T12, Peptide-79; assay: as above
T12 peptide: ACDTYFAGMINECF

Peptide-92 [8] = biological target: T10, Peptide-92; assay: as above
Peptide-137 = biological target: T13, Peptide-137; assay: as above
T13 peptide: TCSAGATWPWPICL

Peptide-138 = biological target: T14, Peptide-138; assay: as above
T14 peptide: LCAAGASWPWPVCL

Peptide-139 = biological target: T15, Peptide-139; assay: as above
T15 peptide: TCSAGASYPWPLCL

Peptide-140 = biological target: T16, Peptide-140; assay: as above
T16 peptide: TCAAGAAWPWPQCL

Peptide-141 = biological target: T17, Peptide-141; assay: as above
T17 peptide: TCSAGATYTWPKCF

Peptide-142 = biological target: T18, Peptide-142; assay: as above
T18 peptide: TCAAGATWSWPACF

Peptide-143 = biological target: T19, Peptide-143; assay: as above
T19 peptide: TCAAGAAWGWPLCF

Peptide-144 = biological target: T20, Peptide-144; assay: as above
T20 peptide: LCAAGATYPWPLCL

Peptide-145 = biological target: T21, Peptide-145; assay: as above
T21 peptide: TCSAGAAYPWPLCL

Peptide-146 = biological target: T22, Peptide-146; assay: as above
T22 peptide: TCSAGAAYSWPACF

Peptide-147 = biological target: T23, Peptide-147; assay: as above
T23 peptide: LCAAGATYPWPTCL

Peptide-148 = biological target: T24, Peptide-148; assay: as above
T24 peptide: SCSAGAHYPWPQCF

Peptide-149 = biological target: T25, Peptide-149; assay: as above
T25 peptide: TCSAGATYEWPRCL

Peptide-150 = biological target: T26, Peptide-150; assay: as above
T26 peptide: TCSAGAHYPWPICL

Peptide-151 = biological target: T27, Peptide-151; assay: as above
T27 peptide: SCSAGAAYYWPWCL

Peptide-152 = biological target: T28, Peptide-152; assay: as above
T28 peptide: TCSAGATWAWPLCF

Peptide-153 = biological target: T29, Peptide-153; assay: as above
T29 peptide: TCAAGATYLWPTCL

Peptide-154 = biological target: T30, Peptide-154; assay: as above
T30 peptide: TCAAGAHYPWPACL

Peptide-120 [9] = biological target: T2, Peptide-120; assay: as above
Peptide-121 [10] = biological target: T3, Peptide-121; assay: as above
Peptide-122 = biological target: T31, Peptide-122; assay: as above
T31 peptide: YCEGHAPEYIRKCL

Peptide-124 = biological target: T32, Peptide-124; assay: as above
T32 peptide: YCEGHSQENIWKCL

Peptide-126 [11] = biological target: T4, Peptide-126; assay: as above
Peptide-129 = biological target: T33, Peptide-129; assay: as above
T33 peptide: YCEGHSSEYIQKCL

Peptide-135 [12] = biological target: T8, Peptide-135; assay: as above

B1: anti-CD28 Fab (Fab, V domains shown)
VH: QVQLVQSGAEVKKPGASVKVSCKASGYTFTSYYIHWVRQAPGQGLEWIGSIYPGNVNTNYNEKFKDRATLTVDTSISTAYMELSRLRSDDTAVYFCTRSHYGLDWNFDVWGQGTTVTVSS
VL: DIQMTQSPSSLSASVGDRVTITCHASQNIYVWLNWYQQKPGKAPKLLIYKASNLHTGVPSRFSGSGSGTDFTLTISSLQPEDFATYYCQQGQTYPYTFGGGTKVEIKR
Off rate t½ (Peptide-87 [1]): 42 s
Off rate t½ (Peptide-120 [2]): 30 s
Off rate t½ (Peptide-121 [3]): 24 s
Off rate t½ (Peptide-126 [4]): 36 s
Off rate t½ (Peptide-127): 60 s
Off rate t½ (Peptide-132): 48 s
Off rate t½ (Peptide-134): 54 s
Off rate t½ (Peptide-135 [5]): 54 s
EC50 (Peptide-84): 337 nM
EC50 (Peptide-87 [6]): 49 nM
EC50 (Peptide-92 [7]): 54 nM
EC50 (Peptide-41): 490 nM
EC50 (Peptide-79): 97 nM
EC50 (Peptide-92 [8]): 18.9 nM
EC50 (Peptide-137): 2.1 nM
EC50 (Peptide-138): 13.1 nM
EC50 (Peptide-139): 5.3 nM
EC50 (Peptide-140): 2.6 nM
EC50 (Peptide-141): 15.7 nM
EC50 (Peptide-142): 4.5 nM
EC50 (Peptide-143): 5.6 nM
EC50 (Peptide-144): 5.6 nM
EC50 (Peptide-145): 4.4 nM
EC50 (Peptide-146): 24.3 nM
EC50 (Peptide-147): 25.8 nM
EC50 (Peptide-148): 19 nM
EC50 (Peptide-149): 12.8 nM
EC50 (Peptide-150): 10.6 nM
EC50 (Peptide-151): 112 nM
EC50 (Peptide-152): 15.6 nM
EC50 (Peptide-153): 20.5 nM
EC50 (Peptide-154): 4.2 nM
EC50 (Peptide-120 [9]): 3.1 nM
EC50 (Peptide-121 [10]): 7.1 nM
EC50 (Peptide-122): 7.8 nM
EC50 (Peptide-124): 28.1 nM
EC50 (Peptide-126 [11]): 3.4 nM
EC50 (Peptide-129): 30.5 nM
EC50 (Peptide-135 [12]): 2.1 nM
